Measured values taken from article PMC13227277, “Targeting CIRP and IL-6R-mediated microglial inflammation to improve outcomes in intracerebral hemorrhage” (Journal of Advanced Research, 2025).

Columns and labels:
[1] = tested on: IL-6R-overexpressing HEK-293 T cells; assay: IL-6R mRNA/protein expression in IL-6R-overexpressing HEK-293 T cells; format: cell-based, human; conditions: CIRP 1 μg/mL for 24 h
Method: The overexpression plasmid for IL-6R was constructed by GenScript Biotech using a pcDNA3.1(+)-3xFLAG-P2A-EGFP vector with a broad-spectrum promoter, non-fusion EGFP fluorescence, and Neo (G418) resistance. The final construct was pcDNA3.1(+)-IL6r-3xFLAG-P2A-EGFP, and a control plasmid (pcDNA3.1(+)-3xFLAG-P2A-EGFP) was also generated.
HEK 293 T cells were cultured in six-well plates to 70–80 % confluence. Cells were divided into control and test groups. For transfection, solution A (plasmid diluted in Opti-MEM) and solution B (Lipofectamine 2000, Life Technologies, USA, diluted in Opti-MEM) were mixed at a 1:2 plasmid-to-lipofectamine ratio. After 6 h, the medium was replaced with DMEM, and GFP fluorescence was observed 24–48 h post-transfection to assess efficiency. Cells were divided into PBS, IL-6R, and CIRP (1 μg/mL for 24 h) groups for further analysis.
RNA was extracted using TRIzol reagent (Invitrogen, 210901). RNA was reverse transcribed into cDNA using Novagen's R323-01 100RXN. qRT-PCR was performed to determine the mRNA levels of Nos2, Tnf, Rela, Mcr1, Arg1, Cirbp, […] and Il6. […]
(§1) Brain tissue adjacent to the hemorrhagic striatum was homogenized in lysis buffer with protease inhibitors. […] The supernatant was collected for protein quantification using the BCA method. […]

[2] = molecular target: T1, recombinant human IL-6 receptor alpha (IL-6Rα) (human, UniProt P08887 20-365); assay: SPR; human IL-6Rα immobilised on a CM5 chip; human CIRBP or TCC as analyte; conditions: both partners purified
T1 construct: Interleukin-6 receptor subunit alpha, human; UniProtKB P08887 is printed for the docking; also called rhIL-6Rα; rhIL-6R; source: recombinant
T1 sequence (looked up): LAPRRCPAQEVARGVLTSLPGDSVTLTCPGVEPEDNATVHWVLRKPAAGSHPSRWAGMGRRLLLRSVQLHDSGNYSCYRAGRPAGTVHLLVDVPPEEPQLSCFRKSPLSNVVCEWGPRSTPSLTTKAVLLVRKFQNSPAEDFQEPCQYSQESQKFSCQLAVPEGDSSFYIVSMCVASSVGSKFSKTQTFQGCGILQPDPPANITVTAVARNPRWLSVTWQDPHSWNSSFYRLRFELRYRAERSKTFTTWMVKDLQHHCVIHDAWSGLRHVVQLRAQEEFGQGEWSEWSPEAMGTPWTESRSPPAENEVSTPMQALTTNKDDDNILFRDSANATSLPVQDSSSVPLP

[3] = tested on: IL-6Rα/STAT3 pathway in microglia; assay: IL-6Rα expression and p-STAT3 in CIRP-stimulated microglia; format: cell-based, mouse; conditions: CIRP stimulation with or without TCC
Method: Brain tissues were fixed in paraformaldehyde, dehydrated, and sectioned at 30 µm using a microtome (CM1900UV, Leica, Germany). Sections were floated onto glass slides and left overnight at room temperature. For cultured cells, after discarding the medium, cells were washed twice with PBS, fixed with precooled 4 % PFA at 4 °C for 10 min, and washed three times with PBS (10 min each) on a shaker. Cells were permeabilized with 0.3 % Triton X-100 in PBS for 20 min, blocked with 5 % donkey serum for 1 h, and incubated overnight at 4 °C with primary antibodies (Iba-1, Rabbit polyclonal, Wako; NeuN, Millipore; GFAP, CST; MBP, Abcam; SMI32, Millipore). The next day, sections were brought to room temperature, washed three times with PBST (PBS + Tween-20), and incubated with secondary antibodies for 1 h in the dark. After three more PBST washes, samples were mounted with DAPI-containing medium and sealed. Fluorescence was visualized using a DM4000B microscope and images were captured with a Leica TCS SP8 confocal microscope. […]
as §1

microglia = assay: IL-6 release from CIRP-stimulated microglia, ELISA (TCC vs TC); format: cell-based, mouse; conditions: peptides 10 μM pre-treated 0.5 h, then rmCIRP 1 μg/mL 24 h, n = 3
Method: To validate the effects of TCC and TC in vitro, microglial cells were pre-treated with the peptides (10 μM) for 0.5 h, followed by stimulation with recombinant mouse CIRP (rmCIRP, 1 μg/mL) for 24 h to establish an inflammation model.
ELISA was used to quantify CIRP, MD2, IL-6, and TNF-α concentrations in blood and cerebrospinal fluid samples. Samples were processed and stored under standardized conditions to preserve protein integrity. Each target protein was measured using commercial ELISA kits, following the manufacturer’s instructions: Mouse CIRBP ELISA Kit (CSB-EL005440MO, CUSABIO), Mouse TNF-α ELISA Kit (EK282, Lianke Bio), Mouse IL-6 ELISA Kit (CSB-E04639m, CUSABIO), and Rat TNF-α ELISA Kit (EK382, Lianke Bio).
After disinfection with 75 % ethanol, the skin and skull were removed, and the brains were placed in ice-cold HBSS. The meninges were peeled off, the cortex was collected, and the hippocampus was discarded. Tissues were digested with 0.25 % trypsin at 37 °C for 12 min, centrifuged at 1200 rpm for 5 min, and resuspended in complete medium. The suspension was transferred to a T75 flask with 15 mL of complete medium. After 14 days, microglial cells were harvested by shaking the flask at 270–280 rpm for 30 min, and the supernatant was collected. […] CIRP (1 μg/mL for 24 h) was added to the microglia, which were divided into PBS, CIRP, and CIRP + TCC groups. […]

STAT3 = STAT3 phosphorylation following CIRP and IL-6R interaction, western blot; format: cell-based; conditions: n = 6
Method: Cells were washed twice with PBS, lysed, and sonicated. After a 30-minute rest to ensure thorough lysis, the homogenate was centrifuged at 12,000 rpm at 4 °C for 15 min. The supernatant was collected for protein quantification using the BCA method. Samples were prepared at a concentration of 2 μg/μL, and 15 μL per well was loaded for gel electrophoresis. Proteins were transferred to membranes using a wet transfer method and blocked with 5 % non-fat milk. […] Membranes were incubated with primary antibodies overnight at 4 °C, followed by incubation with secondary antibodies (GAR-HRP, BIOSHARP; GAM-HRP, Jackson) at room temperature for 2 h. Membranes were washed three times with TBST and developed using a chemiluminescent substrate.

B1: recombinant human CIRP (cold-inducible RNA-binding protein) (natural protein, UniProt Q14011 1-172, looked up)
chain: MASDEGKLFVGGLSFDTNEQSLEQVFSKYGQISEVVVVKDRETQRSRGFGFVTFENIDDAKDAMMAMNGKSVDGRQIRVDQAGKSSDNRSRGYRGGSAGGRGFFRGGRGRGRGFSRGGGDRGYGGNRFESRSGGYGGSRDYYSSRSQSGGYSDRSSGGSYRDSYDSYATHNE
notes: UniProtKB Q14011 is printed for the docking; also called rhCIRP; human CIRBP; source: recombinant
Il6 mRNA expression ([1]; qRT-PCR n = 3–6): did not show a significant change between groups | Il6ra mRNA and protein expression ([1]; qRT-PCR n = 3–6, western blot n = 9): significant upregulation of Il6ra mRNA and protein expression | Kd [2]: 4.27 nM | IL-6Rα expression on microglia ([3]; immunofluorescence): IL-6Rα expression on the microglial membrane significantly increased | p-STAT3 level in microglia ([3]; western blot, n = 6): increase in the p-STAT3/GAPDH ratio compared to the PBS control group | IL-6 release in culture supernatants (microglia): significantly increased IL-6 levels | phosphorylation of STAT3 (STAT3): induced phosphorylation of the STAT3
